This is an account of results in paper PMC4963197 (2016).

Square brackets hold non-standard residues; d marks the D form. Ends that are not written are not given here. pS = N[C@@H](COP(=O)(O)O)C(=O)O

Test [1] addresses T1, G-actin (UniProt P68135 1-377). Briefly: FP; LatB-actin.
The target of test [2] is T1, G-actin. Kind of test: FP; LatB-actin; phospho-S98.

B1: FAM-MRTF-A(62–104) S98D (peptide)
chain: {FAM}-PNLPPLSERKNVLQLKLQQRRTREELVSQGIMPPLKDPAAFHE
A word on the Kd: it is the concentration at which binding is half-saturated. Low readings indicate higher affinity, high ones lower affinity. In the case of B1, the affinity in test [1], expressed as Kd, was 930 nM.

B2: FAM-MRTF-A(67–98) phosphorylated at S98 (peptide)
chain: {FAM}-LSERKNVLQLKLQQRRTREELVSQGIMPPLK[pS]
Consider B2, for which the Kd in test [2] is 630 nM.

B3: FAM-MRTF-A(62–104) phosphorylated at S98 (peptide)
chain: {FAM}-PNLPPLSERKNVLQLKLQQRRTREELVSQGIMPPLK[pS]PAAFHE
The molecule B3 gave a Kd in test [2] of 850 nM.

B4: FAM-MRTF-A(67–98) (peptide)
chain: {FAM}-LSERKNVLQLKLQQRRTREELVSQGIMPPLKS
In turn, B4 gave an equilibrium dissociation constant (Kd) in test [1] of 1120 nM.

B5: FAM-MRTF-A(62–104) (peptide)
chain: {FAM}-PNLPPLSERKNVLQLKLQQRRTREELVSQGIMPPLKSPAAFHE
Molecule B5 returned a Kd in test [1] of 1050 nM.
